Measured values from patent US20200024330A1.

Experiments:
Assay in all cases: cell-based or functional assay
[1] = target: HIV-1 Env of isolate 92UG005 (clade D) (HIV-1)
[2] = target: HIV-1 MGRM-F1-014 Env (pseudovirus) (HIV-1)
[3] = target: HIV-1 IAVI-C3 envelope protein (Env) on pseudovirus (HIV-1)
[4] = target: HIV-1 92BR020 envelope protein (Env) on pseudovirus (HIV-1)
[5] = target: HIV-1 Env of pseudovirus SC422661.8 (Acute), clade B (HIV-1)
[6] = target: HIV-1 MGRM-F1-004 Env (pseudovirus) (HIV-1)
[7] = target: HIV-1 MGRM-A-014 envelope glycoprotein (Env) (HIV-1)
[8] = target: HIV-1 Env of isolate MGRM-G-019 (clade G pseudovirus) (HIV-1)
[9] = target: HIV-1 Env of pseudovirus MGRM-Chronic-B-008, clade B (HIV-1)
[10] = target: HIV-1 Env of isolate MGRM-D-008 (clade D) (HIV-1)
[11] = target: HIV-1 CMU02 envelope protein (Env) on pseudovirus (HIV-1)
[12] = target: HIV-1 Env of pseudovirus NL43, clade B (HIV-1)
[13] = target: HIV-1 Env of isolate MGRM-D-014 (clade D) (HIV-1)
[14] = target: HIV-1 Env of isolate MGRM-G-011 (clade G pseudovirus) (HIV-1)
[15] = target: HIV-1 Env of isolate MGRM-D-001 (clade D) (HIV-1)
[16] = target: HIV-1 MGRM-C-017 Env (HIV-1)
[17] = target: HIV-1 MGRM-A-003 envelope glycoprotein (Env) (HIV-1)
[18] = target: HIV-1 Env of pseudovirus TRO.11 (Acute), clade B (HIV-1)
[19] = target: HIV-1 MGRM-C-006 Env (HIV-1)
[20] = target: HIV-1 Env of isolate MGRM-D-020 (clade D) (HIV-1)
[21] = target: HIV-1 92RW026 envelope glycoprotein (Env) (HIV-1)
[22] = target: HIV-1 Env of isolate 92UG001 (clade D) (HIV-1)
[23] = target: HIV-1 APV-6 envelope protein (Env) on pseudovirus (HIV-1)
[24] = target: HIV-1 Env of isolate MGRM-G-014 (subtype G) (HIV-1)
[25] = target: HIV-1 Env of isolate MGRM-G-016 (subtype G) (HIV-1)
[26] = target: HIV-1 Env of isolate MGRM-F1-013 (HIV-1)
[27] = target: HIV-1 Env of isolate MGRM-D-014 (HIV-1)
[28] = target: HIV-1 Env of isolate MG RM-D-028 (subtype D) (HIV-1)
[29] = target: HIV-1 VLGCB3 Env (pseudovirus) (HIV-1)
[30] = target: HIV-1 Env of isolate MG RM-D-011 (subtype D) (HIV-1)
[31] = target: HIV-1 Env of isolate MGRM-C-001 (pseudovirus) (HIV-1 isolate MGRM-C-001, subtype C)
[32] = target: HIV-1 Env of isolate 92UG001 (subtype D) (HIV-1)
[33] = target: HIV-1 MGRM-D-018 envelope glycoprotein (Env) on pseudovirus (HIV-1)
[34] = target: HIV-1 Env of isolate MGRM-D-002 (HIV-1)
[35] = target: HIV-1 Env of isolate MGRM-D-005 (HIV-1)

Sequence of 1443_C16 (PG16) (TCN-116) (antibody) (VH): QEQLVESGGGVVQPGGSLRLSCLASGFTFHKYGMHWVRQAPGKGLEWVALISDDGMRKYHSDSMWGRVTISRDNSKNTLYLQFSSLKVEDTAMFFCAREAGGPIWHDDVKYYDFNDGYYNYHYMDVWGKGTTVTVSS
Sequence of 1443_C16 (PG16) (TCN-116) (antibody) (VL): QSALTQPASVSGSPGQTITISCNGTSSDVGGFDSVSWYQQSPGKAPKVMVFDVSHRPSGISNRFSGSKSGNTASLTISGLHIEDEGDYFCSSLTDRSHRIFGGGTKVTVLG
Sequence of PGT-144 (4970_K22) (antibody) (VH): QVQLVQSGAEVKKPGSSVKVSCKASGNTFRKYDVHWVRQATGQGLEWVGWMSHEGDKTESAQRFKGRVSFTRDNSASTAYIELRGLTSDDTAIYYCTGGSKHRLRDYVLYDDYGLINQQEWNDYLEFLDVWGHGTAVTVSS
Sequence of PGT-144 (4970_K22) (antibody) (VL): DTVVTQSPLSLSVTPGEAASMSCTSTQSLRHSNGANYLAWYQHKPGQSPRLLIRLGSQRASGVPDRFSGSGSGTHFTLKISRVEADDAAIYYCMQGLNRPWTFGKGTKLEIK
Sequence of PGT-143 (4980_N08) (antibody) (VH): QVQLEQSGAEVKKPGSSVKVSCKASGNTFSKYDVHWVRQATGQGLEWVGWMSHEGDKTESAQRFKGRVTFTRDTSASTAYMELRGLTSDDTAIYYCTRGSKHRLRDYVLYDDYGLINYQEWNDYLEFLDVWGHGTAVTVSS
Sequence of PGT-143 (4980_N08) (antibody) (VL): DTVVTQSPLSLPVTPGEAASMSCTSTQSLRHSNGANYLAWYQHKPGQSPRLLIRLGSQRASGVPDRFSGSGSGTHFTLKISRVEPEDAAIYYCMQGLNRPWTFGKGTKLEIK
Sequence of PGT-142 (4995_E20) (antibody) (VH): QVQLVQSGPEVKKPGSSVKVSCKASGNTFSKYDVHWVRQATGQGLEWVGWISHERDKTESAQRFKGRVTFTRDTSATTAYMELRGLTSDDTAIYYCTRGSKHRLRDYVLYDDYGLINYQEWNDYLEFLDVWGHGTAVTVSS
Sequence of PGT-142 (4995_E20) (antibody) (VL): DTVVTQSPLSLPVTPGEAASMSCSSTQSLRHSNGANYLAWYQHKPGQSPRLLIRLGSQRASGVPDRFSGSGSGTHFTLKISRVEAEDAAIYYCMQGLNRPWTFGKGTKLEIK
Sequence of PGT-141 (4964_G22; 4993_K13) (antibody) (VH): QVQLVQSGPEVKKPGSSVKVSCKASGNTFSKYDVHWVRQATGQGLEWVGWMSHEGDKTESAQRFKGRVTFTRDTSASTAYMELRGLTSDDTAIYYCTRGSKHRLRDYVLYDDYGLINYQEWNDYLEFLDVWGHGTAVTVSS

| Substance | IC50 (µg/ml), pseudovirus neutralization [1] | IC50 (µg/ml), pseudovirus neutralization [2] | neutralization IC50 [3] | IC50 (µg/ml), pseudovirus neutralization [5] | IC50 (µg/ml), pseudovirus neutralization [7] | IC50 (µg/ml), pseudovirus neutralization [8] | IC50 (µg/ml), pseudovirus neutralization [9] | IC50 (µg/ml), pseudovirus neutralization [10] | IC50 (µg/ml), pseudovirus neutralization [12] | IC50 (µg/ml), pseudovirus neutralization [14] | IC50 [16] | IC50 (µg/ml), pseudovirus neutralization [17] | IC50 (µg/ml), pseudovirus neutralization [18] | IC50 [19] | IC50 (µg/ml), pseudovirus neutralization [20] | IC50 (µg/ml), pseudovirus neutralization [21] | IC50 (µg/ml), pseudovirus neutralization [22] | neutralization IC50 [23] | neutralization IC50 [24] | neutralization IC50 [25] | further results |
| --- | --- | --- | --- | --- | --- | --- | --- | --- | --- | --- | --- | --- | --- | --- | --- | --- | --- | --- | --- | --- | --- |
| 2G12 (antibody) | > 50 µg/mL | > 50 µg/mL | > 50 µg/mL | 0.84 µg/mL | > 50 µg/mL | 31 µg/mL | 0.55 µg/mL | > 50 µg/mL | 0.49 µg/mL | > 50 µg/mL | > 50 µg/mL | > 50 µg/mL | 0.29 µg/mL | > 50 µg/mL | > 50 µg/mL | 17.2 µg/mL | > 50 µg/mL | 5.3 µg/mL |  |  | neutralization IC50 [4]: 2.26 µg/mL; IC50 (µg/ml), pseudovirus neutralization [6]: > 50 µg/mL; neutralization IC50 [11]: > 50 µg/mL; IC50 (µg/ml), pseudovirus neutralization [13]: > 50 µg/mL; IC50 (µg/ml), pseudovirus neutralization [15]: > 50 µg/mL |
| 1443_C16 (PG16) (TCN-116) (antibody) | > 50 µg/mL | 0.01 µg/mL | 14.8 µg/mL | 1.13 µg/mL | 20.3 µg/mL | 1.21 µg/mL | 0.73 µg/mL | > 50 µg/mL | 0.02 µg/mL | 0.04 µg/mL | 1.8 µg/mL | 2.65 µg/mL | 0.22 µg/mL | 2.62 µg/mL | 16.3 µg/mL | 0.03 µg/mL | > 50 µg/mL | 0.08 µg/mL |  |  | neutralization IC50 [4]: > 50 µg/mL; IC50 (µg/ml), pseudovirus neutralization [6]: 0.43 µg/mL; neutralization IC50 [11]: > 50 µg/mL; IC50 (µg/ml), pseudovirus neutralization [13]: 0.003 µg/mL; IC50 (µg/ml), pseudovirus neutralization [15]: > 50 µg/mL |
| 4E10 (antibody) | 7.46 µg/mL | 7.36 µg/mL | 5 µg/mL | 6.35 µg/mL | 1.74 µg/mL | 6.53 µg/mL | 16.7 µg/mL | 42.9 µg/mL | 4.67 µg/mL | 1.44 µg/mL | 1.47 µg/mL | 5.94 µg/mL | 1.39 µg/mL | 4.94 µg/mL | > 50 µg/mL | 12.9 µg/mL | 13.6 µg/mL | 0.4 µg/mL |  |  | neutralization IC50 [4]: 41.4 µg/mL; IC50 (µg/ml), pseudovirus neutralization [6]: 2.74 µg/mL; neutralization IC50 [11]: 0.59 µg/mL; IC50 (µg/ml), pseudovirus neutralization [13]: 3.24 µg/mL; IC50 (µg/ml), pseudovirus neutralization [15]: 1.84 µg/mL |
| VRC01 (antibody) |  |  |  |  |  |  |  |  |  |  |  |  |  |  |  |  |  |  | 0.056 µg/mL | 0.063 µg/mL | IC50, pseudovirus neutralization [26]: 0.17 µg/mL; IC50, pseudovirus neutralization [27]: 0.332 µg/mL |
| 4838_L06 (PGT-121) (antibody) |  |  |  |  |  |  |  |  |  |  |  |  |  |  |  |  |  |  |  |  | IC50 (µg/mL), pseudovirus neutralization [28]: 0.009 µg/mL; IC50, pseudovirus neutralization [29]: 0.005 µg/mL; IC50 (µg/mL), pseudovirus neutralization [30]: 0.018 µg/mL; IC50 (µg/mL) neutralization [31]: 17.5 µg/mL; IC50 [26]: 0.083 µg/mL; IC50 (µg/mL), pseudovirus neutralization [32]: > 50 µg/mL |
| PGT-143 (4980_N08) (antibody) |  |  |  |  |  |  |  |  |  |  |  |  |  |  |  |  |  |  | 0.107 µg/mL | 7.6 µg/mL |  |
| PGT-142 (4995_E20) (antibody) |  |  |  |  |  |  |  |  |  |  |  |  |  |  |  |  |  |  | 0.076 µg/mL | 8.17 µg/mL |  |
| 1496_C09 (PG9) (TCN-109) (antibody) |  | 0.01 µg/mL | 12.9 µg/mL | 0.79 µg/mL | 0.62 µg/mL | 0.67 µg/mL | 6.66 µg/mL | 6.86 µg/mL | 0.32 µg/mL | 0.19 µg/mL | 1.52 µg/mL | 0.65 µg/mL | 5.43 µg/mL | 0.23 µg/mL | 2.03 µg/mL | 0.27 µg/mL | 41.8 µg/mL | 0.0869 µg/mL | 16.5 µg/mL | 1.36 µg/mL | IC50 (ug/ml), neutralizing activity [33]: 2.04 µg/mL; IC50 neutralization [33]: 0.0444 µg/mL; IC80, neutralization [33]: 0.18 µg/mL; IC90, neutralization [33]: 0.43 µg/mL; IC95, neutralization [33]: 1.05 µg/mL; IC50 (µg/mL), pseudovirus neutralization [34]: 0.021 µg/mL; IC50 (µg/mL), pseudovirus neutralization [26]: 1.25 µg/mL; IC50 (µg/mL), pseudovirus neutralization [27]: 0.023 µg/mL; IC50 (µg/mL), pseudovirus neutralization [35]: 1.8 µg/mL |
| 1495_C14 (PGC14) (antibody) | > 50 µg/mL | > 50 µg/mL | > 50 µg/mL | > 50 µg/mL | > 50 µg/mL | > 50 µg/mL | > 50 µg/mL | > 50 µg/mL | 40 µg/mL | > 50 µg/mL | > 50 µg/mL | > 50 µg/mL | > 50 µg/mL | > 50 µg/mL | > 50 µg/mL | > 50 µg/mL | > 50 µg/mL | 7.41 µg/mL |  |  | neutralization IC50 [4]: 0.637 µg/mL; IC50 (µg/ml), pseudovirus neutralization [6]: > 50 µg/mL; neutralization IC50 [11]: > 50 µg/mL; IC50 (µg/ml), pseudovirus neutralization [13]: 48 µg/mL; IC50 (µg/ml), pseudovirus neutralization [15]: > 50 µg/mL |
| b12 (antibody) | > 50 µg/mL | > 50 µg/mL | 5 µg/mL | 6.11 µg/mL | > 50 µg/mL | 3.77 µg/mL | 2.82 µg/mL | > 50 µg/mL | 0.17 µg/mL | > 50 µg/mL | > 50 µg/mL | > 50 µg/mL | > 50 µg/mL | > 50 µg/mL | > 50 µg/mL | > 50 µg/mL | 1.01 µg/mL | > 25 µg/mL |  |  | neutralization IC50 [4]: 27.5 µg/mL; IC50 (µg/ml), pseudovirus neutralization [6]: > 50 µg/mL; neutralization IC50 [11]: 4.25 µg/mL; IC50 (µg/ml), pseudovirus neutralization [13]: > 50 µg/mL; IC50 (µg/ml), pseudovirus neutralization [15]: > 50 µg/mL |
| PGT-144 (4970_K22) (antibody) |  |  |  |  |  |  |  |  |  |  |  |  |  |  |  |  |  |  | 0.562 µg/mL | > 50 µg/mL |  |
| PGV04 (antibody) |  |  |  |  |  |  |  |  |  |  |  |  |  |  |  |  |  |  | 0.056 µg/mL | 0.019 µg/mL | IC50 (µg/mL), pseudovirus neutralization [34]: 0.322 µg/mL; IC50 (µg/mL), pseudovirus neutralization [26]: 0.084 µg/mL; IC50 (µg/mL), pseudovirus neutralization [27]: 0.194 µg/mL; IC50 (µg/mL), pseudovirus neutralization [35]: > 50 µg/mL |
| PGT-141 (4964_G22; 4993_K13) (antibody) |  |  |  |  |  |  |  |  |  |  |  |  |  |  |  |  |  |  | 0.222 µg/mL | 4.69 µg/mL |  |
| 2F5 (antibody) | 8.61 µg/mL | 15.1 µg/mL | > 50 µg/mL | > 50 µg/mL | 1.43 µg/mL | > 50 µg/mL | > 50 µg/mL | > 50 µg/mL | 2.02 µg/mL | 1.16 µg/mL | > 50 µg/mL | 7.37 µg/mL | > 50 µg/mL | > 50 µg/mL | > 50 µg/mL | 8.63 µg/mL | 13 µg/mL | 0.1 µg/mL |  |  | neutralization IC50 [4]: > 50 µg/mL; IC50 (µg/ml), pseudovirus neutralization [6]: 4.31 µg/mL; neutralization IC50 [11]: 0.38 µg/mL; IC50 (µg/ml), pseudovirus neutralization [13]: 2.22 µg/mL; IC50 (µg/ml), pseudovirus neutralization [15]: 0.63 µg/mL |
